Measurements reported in publication PMC10115451 (eLife, 2023).

B1: ANDV-5 (human monoclonal antibody, IgG1) (antibody, V domains shown)
VH: QVQLLQSGAEVKKPGSSVRVSCQSSGDIYNYYGISWVRQAPGQGLEWMGGIIPVYGRPNYVQKFRGRVTFTVDKSTSTAYMELSTLRADDTAVYYCARDTARSHYFGSGNDYGMDVWGQGTTVIVSS
VL: DIVMTQSPLSLPVTPGEPASISCRSSQSLLHSNGFNFVDWYLQKPGQSPQLLIYLGSTRASGVPDRFSGSGSGTDFTLEISRVEAEDVGVYYCMQALQFPRTFGQGTKLDIK
notes: also called rANDV-5; ANDV-5 IgG; source: ExpiCHO cells, transiently transfected, purified (HiTrap MabSelectSure); copies: 2 + 2
B2: ANDV-34 (human monoclonal antibody, IgG1) (antibody, V domains shown)
VH: QVHLVQSGGELRKPGSSVKVSCKASGGTFSSFAITWLRQAPGQGLEWVGAYIPVFGSAIHGQKVHGRVTLTADESTTTAYMELSSLRSEDTAVYFCARGPTQNWEYSYYTYFESWGQGTLVTVSS
VL: QIVLTQSPGTLSLSPGERATLSCRASQSVTSRYLAWYQQKPGQAPRLLIYDTSSRATGIPDRFSGSGSETDFTLTISRLAPEDFAVYYCQQYGTSPAVTFGQGTRLEIK
notes: also called rANDV-34; source: ExpiCHO cells, transiently transfected, purified (HiTrap MabSelectSure); copies: 2 + 2
B3: ANDV-5 Fab (Fab, V domains shown)
VH: B1 VH
VL: B1 VL
notes: also called Fab ANDV-5; Fab form of ANDV-5; source: ExpiCHO cells, transiently transfected, purified (CaptureSelect CH1-XL)

Tests used:
[1] = biological target: MAPV Gn^H/Gc (linked Maporal virus Gn head domain and Gc ectodomain) (Maporal virus, strain HV-97021050, UniProt Q5MYC0); test: ELISA; conditions: both partners purified
[2] = biological target: T1, ANDV Gn^B (Andes virus Gn base domain) (Andes virus, NP_604472.1 (Chile-9717869), UniProt Q9E006); test: ELISA; conditions: both partners purified
T1 construct: source: Drosophila S2 cells, purified
T1 sequence (Q9E006 375-484): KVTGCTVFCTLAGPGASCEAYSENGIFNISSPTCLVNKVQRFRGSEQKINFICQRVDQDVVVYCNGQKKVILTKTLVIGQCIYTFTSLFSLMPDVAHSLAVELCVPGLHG

[3] = biological target: T2, ANDV Gc (Andes virus Gc ectodomain) (Andes virus, NP_604472.1 (Chile-9717869), UniProt Q9E006); test: ELISA; conditions: both partners purified
T2 construct: source: Drosophila S2 cells, purified
T2 sequence (Q9E006 652-1107): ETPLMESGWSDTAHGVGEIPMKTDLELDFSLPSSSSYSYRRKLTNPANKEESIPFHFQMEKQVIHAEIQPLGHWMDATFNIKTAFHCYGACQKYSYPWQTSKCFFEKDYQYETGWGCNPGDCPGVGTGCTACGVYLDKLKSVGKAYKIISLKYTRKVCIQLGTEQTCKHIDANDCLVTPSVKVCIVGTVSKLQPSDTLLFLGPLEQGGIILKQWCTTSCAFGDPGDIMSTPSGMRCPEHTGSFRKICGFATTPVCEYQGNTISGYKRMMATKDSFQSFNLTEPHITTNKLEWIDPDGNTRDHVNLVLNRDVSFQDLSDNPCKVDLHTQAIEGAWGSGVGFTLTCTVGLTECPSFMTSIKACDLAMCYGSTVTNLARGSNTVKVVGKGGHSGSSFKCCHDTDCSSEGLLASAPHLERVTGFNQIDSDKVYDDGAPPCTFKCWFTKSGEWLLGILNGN

[4] = biological target: T3, ANDV Gn/Gc (Andes virus glycoproteins from the full-length M segment, on the cell surface) (Andes virus, GenBank AF291703.2 …, UniProt Q9E006); test: flow cytometry on cells; conditions: one partner purified
T3 construct: source: Expi293F cells, transfected, on the cell surface
T3 sequence (Q9E006 whole entry, looked up): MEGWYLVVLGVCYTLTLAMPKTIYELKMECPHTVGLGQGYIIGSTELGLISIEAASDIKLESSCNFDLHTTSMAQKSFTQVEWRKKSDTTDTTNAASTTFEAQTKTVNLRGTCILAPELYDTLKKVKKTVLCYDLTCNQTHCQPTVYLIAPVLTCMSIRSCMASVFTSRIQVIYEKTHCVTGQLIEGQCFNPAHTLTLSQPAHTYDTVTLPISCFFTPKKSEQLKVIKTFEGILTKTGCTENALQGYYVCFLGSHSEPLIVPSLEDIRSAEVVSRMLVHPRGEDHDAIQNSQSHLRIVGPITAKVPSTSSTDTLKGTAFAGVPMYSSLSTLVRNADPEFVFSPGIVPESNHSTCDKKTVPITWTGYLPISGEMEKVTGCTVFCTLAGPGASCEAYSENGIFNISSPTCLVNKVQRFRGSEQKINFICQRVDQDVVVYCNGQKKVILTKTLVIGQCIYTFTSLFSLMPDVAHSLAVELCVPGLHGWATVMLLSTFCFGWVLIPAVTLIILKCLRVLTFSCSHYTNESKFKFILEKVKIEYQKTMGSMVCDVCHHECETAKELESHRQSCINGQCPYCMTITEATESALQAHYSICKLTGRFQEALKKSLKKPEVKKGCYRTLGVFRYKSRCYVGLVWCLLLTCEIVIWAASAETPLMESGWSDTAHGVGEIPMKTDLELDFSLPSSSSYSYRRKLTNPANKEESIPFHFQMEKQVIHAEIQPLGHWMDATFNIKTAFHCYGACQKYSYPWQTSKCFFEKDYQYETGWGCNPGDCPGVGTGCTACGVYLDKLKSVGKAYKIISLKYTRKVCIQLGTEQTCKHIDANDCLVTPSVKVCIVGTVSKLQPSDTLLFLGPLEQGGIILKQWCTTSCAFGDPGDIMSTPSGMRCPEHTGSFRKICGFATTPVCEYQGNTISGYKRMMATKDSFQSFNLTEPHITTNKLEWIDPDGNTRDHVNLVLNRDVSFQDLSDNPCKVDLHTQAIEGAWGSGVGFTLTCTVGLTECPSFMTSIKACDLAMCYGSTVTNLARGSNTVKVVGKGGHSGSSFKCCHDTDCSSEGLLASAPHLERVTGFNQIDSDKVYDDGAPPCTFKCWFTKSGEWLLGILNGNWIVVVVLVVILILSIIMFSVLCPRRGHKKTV

Binder | binding result [1] | binding result [2] | binding result [3] | binding result [4]
B1 | binds | no binding | no binding | binds
B2 | no binding | no binding | no binding | binds
B3 | – | – | – | binds
